Assay results reported in patent US20100254977A1.

B1: mouse mAb 17E6 (antibody, mouse IgG1, V domains shown)
VH: EPKSSDKTHTCPPCP
VL: WGQGTTVTVSS

Columns and labels:
[1] = target: human αv-integrins (human) (UniProt P06756); test: cell-based or functional assay
[2] = target: human αv-integrins (human), P06756; test: cell-based or functional assay
human αv-integrins (human), P06756, sequence (P06756 31-1048): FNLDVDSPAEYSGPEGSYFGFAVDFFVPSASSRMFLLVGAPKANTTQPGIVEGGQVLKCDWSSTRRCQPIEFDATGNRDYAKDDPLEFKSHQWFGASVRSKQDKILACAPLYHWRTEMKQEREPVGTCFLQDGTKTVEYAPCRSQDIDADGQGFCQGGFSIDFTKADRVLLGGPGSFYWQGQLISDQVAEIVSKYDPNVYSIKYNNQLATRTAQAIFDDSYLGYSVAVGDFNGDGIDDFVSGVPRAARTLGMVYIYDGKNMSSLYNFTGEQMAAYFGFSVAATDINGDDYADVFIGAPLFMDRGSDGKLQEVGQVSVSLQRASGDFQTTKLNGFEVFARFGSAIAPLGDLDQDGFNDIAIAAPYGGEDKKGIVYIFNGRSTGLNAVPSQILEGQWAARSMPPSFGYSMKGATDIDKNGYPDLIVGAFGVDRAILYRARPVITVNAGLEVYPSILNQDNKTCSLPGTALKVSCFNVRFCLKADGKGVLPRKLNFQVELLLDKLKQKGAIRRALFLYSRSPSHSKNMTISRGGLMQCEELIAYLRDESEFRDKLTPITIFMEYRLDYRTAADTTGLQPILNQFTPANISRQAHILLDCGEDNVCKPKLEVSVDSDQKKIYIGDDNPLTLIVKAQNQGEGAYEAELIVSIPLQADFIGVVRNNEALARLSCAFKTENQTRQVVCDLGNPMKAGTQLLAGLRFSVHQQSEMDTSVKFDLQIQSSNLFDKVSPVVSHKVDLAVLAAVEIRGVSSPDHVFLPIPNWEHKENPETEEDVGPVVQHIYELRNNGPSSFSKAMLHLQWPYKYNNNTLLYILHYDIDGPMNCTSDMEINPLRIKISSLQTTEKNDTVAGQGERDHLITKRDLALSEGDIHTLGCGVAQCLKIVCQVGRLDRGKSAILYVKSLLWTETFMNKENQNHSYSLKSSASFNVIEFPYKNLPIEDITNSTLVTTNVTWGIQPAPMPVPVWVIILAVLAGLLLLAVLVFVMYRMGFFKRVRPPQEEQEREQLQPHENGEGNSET

human αv-integrins (human), sequence (P06756 31-1048): as above

Molecule	EC50, blocking of VEGF-induced migration of human endothelial cells on vitronectin [1]	EC50, blocking of tumor cell adhesions [1]	EC50, inhibition of human endothelial cell adhesion to vitronectin [1]	IC50, growth of HUVEC on vitronectin (Alamar Blue) [1]	IC50, growth of HUVEC on vitronectin (Alamar Blue) [2]
DI-17E6 (antibody)	50 nM	0.1 to 50 nM	10 nM	4 ng/mL	
B1					5 ng/mL
